Source: paper PMC9786777, “Phosphorylation of Thr9 Affects the Folding Landscape of the N-Terminal Segment of Human AGT Enhancing Protein Aggregation of Disease-Causing Mutants” (Molecules, 2022)

Columns and labels:
[1] = biological target: alanine:glyoxylate aminotransferase (AGT) NTT, 1-21 (UniProt P21549); assay: NMR translational diffusion (DOSY), self-association; details: sites T9
[2] = biological target: the molecule itself; assay: dynamic light scattering; holo-AGT as purified, 10 µM (in subunit), Na-HEPES 20 mM NaCl 200 mM pH 7.4, 25 °C; hydrodynamic radius compared with the dimer of the crystal structure

Row | Molecule | binding result [2] | also measured
1 | alanine:glyoxylate aminotransferase (AGT) NTT, 1-21 (from UniProt P21549) NTT-AGT T9E-P11L peptide | – | other: hydrodynamic radius ([1]; reference: NTT-AGT P11L peptide): none in both; reference 12 ± 2
2 | alanine:glyoxylate aminotransferase (AGT) NTT, 1-21 (from UniProt P21549) NTT-AGT T9E peptide | – | other: hydrodynamic radius ([1]; reference: NTT-AGT WT peptide): none in both; reference 12 ± 2
3 | alanine:glyoxylate aminotransferase (AGT) WT, holo-protein (enzyme, human, UniProt P21549 1-392, looked up, PLP covalently bound to K209 (holo-protein), alanine:glyoxylate aminotransferase (AGT), human, 392 residues; also called holo-AGT) MASHKLLVTPPKALLKPLSIPNQLLLGPGPSNLPPRIMAAGGLQMIGSMSKDMYQIMDEIKEGIQYVFQTRNPLTLVISGSGHCALEAALVNVLEPGDSFLVGANGIWGQRAVDIGERIGARVHPMTKDPGGHYTLQEVEEGLAQHKPVLLFLTHGESSTGVLQPLDGFGELCHRYKCLLLVDSVASLGGTPLYMDRQGIDILYSGSQKALNAPPGTSLISFSDKAKKKMYSRKTKPFSFYLDIKWLANFWGCDDQPRMYHHTIPVISLYSLRESLALIAEQGLENSWRQHREAAAYLHGRLQALGLQLFVKDPALRLPTVTTVAVPAGYDWRDIVSYVIDHFDIEIMGGLGPSTGKVLRIGLLGCNATRENVDRVTEALRAALQHCPKKKL | binds | –
4 | AGT WT with the T9A mutation, holo-protein (enzyme, human, UniProt P21549 1-392, looked up, PLP covalently bound to K209 (holo-protein), alanine:glyoxylate aminotransferase (AGT), human, 392 residues, control mutation T9A; also called T9A (WT background)) MASHKLLVAPPKALLKPLSIPNQLLLGPGPSNLPPRIMAAGGLQMIGSMSKDMYQIMDEIKEGIQYVFQTRNPLTLVISGSGHCALEAALVNVLEPGDSFLVGANGIWGQRAVDIGERIGARVHPMTKDPGGHYTLQEVEEGLAQHKPVLLFLTHGESSTGVLQPLDGFGELCHRYKCLLLVDSVASLGGTPLYMDRQGIDILYSGSQKALNAPPGTSLISFSDKAKKKMYSRKTKPFSFYLDIKWLANFWGCDDQPRMYHHTIPVISLYSLRESLALIAEQGLENSWRQHREAAAYLHGRLQALGLQLFVKDPALRLPTVTTVAVPAGYDWRDIVSYVIDHFDIEIMGGLGPSTGKVLRIGLLGCNATRENVDRVTEALRAALQHCPKKKL | binds | –
5 | AGT WT with the T9E mutation, holo-protein (enzyme, human, UniProt P21549 1-392, looked up, PLP covalently bound to K209 (holo-protein), alanine:glyoxylate aminotransferase (AGT), human, 392 residues, phosphomimetic T9E; also called T9E (WT background)) MASHKLLVEPPKALLKPLSIPNQLLLGPGPSNLPPRIMAAGGLQMIGSMSKDMYQIMDEIKEGIQYVFQTRNPLTLVISGSGHCALEAALVNVLEPGDSFLVGANGIWGQRAVDIGERIGARVHPMTKDPGGHYTLQEVEEGLAQHKPVLLFLTHGESSTGVLQPLDGFGELCHRYKCLLLVDSVASLGGTPLYMDRQGIDILYSGSQKALNAPPGTSLISFSDKAKKKMYSRKTKPFSFYLDIKWLANFWGCDDQPRMYHHTIPVISLYSLRESLALIAEQGLENSWRQHREAAAYLHGRLQALGLQLFVKDPALRLPTVTTVAVPAGYDWRDIVSYVIDHFDIEIMGGLGPSTGKVLRIGLLGCNATRENVDRVTEALRAALQHCPKKKL | binds | –
